The target in the experiment is GST-tagged Cdc42, nucleotide-free (human) (UniProt P60953). Description: pull-down.
Sequence of UniProt P60953 (P60953 whole entry): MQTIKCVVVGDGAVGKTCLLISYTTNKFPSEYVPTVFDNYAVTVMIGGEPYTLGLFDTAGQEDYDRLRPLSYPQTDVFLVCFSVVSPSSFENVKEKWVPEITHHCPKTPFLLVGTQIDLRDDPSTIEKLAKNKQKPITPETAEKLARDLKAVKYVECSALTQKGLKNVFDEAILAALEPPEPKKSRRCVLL

Usually stoichiometry N stands for the number of molecules, sites or subunits per partner or assembly. Take “MBP-Map residues 37–203 (from UniProt P0AE18 37-203) (domain or fragment)”: the stoichiometry N was determined as 1.

The values are drawn from paper PMC5130228.
